Data from article PMC3678169 (The Journal of Cell Biology, 2013).
One block for each binder: values may come before it. Where no end group is shown, it is not given here. The star is where a group is joined. Dansyl = CN(C)c1cccc2c(S(=O)(=O)*)cccc12

B1: GST-p67 fusion (natural protein, human, UniProt P19878 1-526, looked up)
chain: MSLVEAISLWNEGVLAADKKDWKGALDAFSAVQDPHSRICFNIGCMYTILKNMTEAEKAFTRSINRDKHLAVAYFQRGMLYYQTEKYDLAIKDLKEALIQLRGNQLIDYKILGLQFKLFACEVLYNIAFMYAKKEEWKKAEEQLALATSMKSEPRHSKIDKAMECVWKQKLYEPVVIPVGKLFRPNERQVAQLAKKDYLGKATVVASVVDQDSFSGFAPLQPQAAEPPPRPKTPEIFRALEGEAHRVLFGFVPETKEELQVMPGNIVFVLKKGNDNWATVMFNGQKGLVPCNYLEPVELRIHPQQQPQEESSPQSDIPAPPSSKAPGRPQLSPGQKQKEEPKEVKLSVPMPYTLKVHYKYTVVMKTQPGLPYSQVRDMVSKKLELRLEHTKLSYRPRDSNELVPLSEDSMKDAWGQVKNYCLTLWCENTVGDQGFPDEPKESEKADANNQTTEPQLKKGSQVEALFSYEATQPEDLEFQEGDIILVLSKVNEEWLEGECKGKVGIFPKVFVEDCATTDLESTRREV
B2: His-tagged Tiam1 PHn-CC-Ex domain (429–702) (domain or fragment, human, UniProt Q13009 429-702, looked up)
chain: AAQGTVRKAGALAVKNFLVHKKNKKVESATRRKWKHYWVSLKGCTLFFYESDGRSGIDHNSIPKHAVWVENSIVQAVPEHPKKDFVFCLSNSLGDAFLFQTTSQTELENWITAIHSACATAVARHHHKEDTLRLLKSEIKKLEQKIDMDEKMKKMGEMQLSSVTDSKKKKTILDQIFVWEQNLEQFQMDLFRFRCYLASLQGGELPNPKRLLAFASRPTKVAMGRLGIFSVSSFHALVAARTGETGVRRRTQAMSRSASKRRSRFSSLWGLDTT

Experiments:
[1] = target: 15N-labeled Tiam1 PDZ domain (human, UniProt Q13009 841-930); experiment: NMR titration
[2] = target: His-tagged Tiam1 PHn-PHc (423–1406) (human, UniProt Q13009 423-1406); experiment: pull-down
[3] = target: B1; experiment: pull-down

His-tagged Tiam1 PHn-PHc (423–1406), sequence (Q13009 423-1406): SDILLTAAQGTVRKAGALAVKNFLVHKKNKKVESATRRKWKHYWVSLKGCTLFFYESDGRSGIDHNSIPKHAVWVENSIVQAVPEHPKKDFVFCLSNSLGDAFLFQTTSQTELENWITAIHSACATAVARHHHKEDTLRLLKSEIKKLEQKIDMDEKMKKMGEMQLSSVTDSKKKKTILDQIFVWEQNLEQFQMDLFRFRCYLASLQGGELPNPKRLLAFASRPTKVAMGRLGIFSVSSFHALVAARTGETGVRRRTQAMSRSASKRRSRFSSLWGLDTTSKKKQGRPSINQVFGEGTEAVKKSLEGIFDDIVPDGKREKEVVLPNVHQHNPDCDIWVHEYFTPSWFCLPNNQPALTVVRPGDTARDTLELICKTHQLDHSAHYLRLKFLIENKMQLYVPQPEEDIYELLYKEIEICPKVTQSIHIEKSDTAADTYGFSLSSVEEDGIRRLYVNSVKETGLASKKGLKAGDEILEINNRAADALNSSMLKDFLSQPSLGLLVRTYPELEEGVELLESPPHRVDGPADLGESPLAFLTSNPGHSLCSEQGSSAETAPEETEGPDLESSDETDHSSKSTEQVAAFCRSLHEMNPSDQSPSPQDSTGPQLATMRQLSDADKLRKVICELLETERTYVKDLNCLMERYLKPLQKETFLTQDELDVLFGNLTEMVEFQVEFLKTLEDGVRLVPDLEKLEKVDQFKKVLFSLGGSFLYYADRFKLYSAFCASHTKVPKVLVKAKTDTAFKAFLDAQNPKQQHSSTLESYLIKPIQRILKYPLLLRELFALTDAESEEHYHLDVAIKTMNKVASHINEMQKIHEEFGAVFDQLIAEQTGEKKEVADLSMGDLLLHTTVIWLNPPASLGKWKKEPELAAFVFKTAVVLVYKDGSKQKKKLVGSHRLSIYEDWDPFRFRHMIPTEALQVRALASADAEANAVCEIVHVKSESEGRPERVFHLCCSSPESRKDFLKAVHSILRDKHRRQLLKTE
15N-labeled Tiam1 PDZ domain, sequence (Q13009 841-930): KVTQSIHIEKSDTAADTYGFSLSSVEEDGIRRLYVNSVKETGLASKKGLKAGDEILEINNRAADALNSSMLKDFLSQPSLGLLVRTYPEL

Kd [1]: 980 ± 150 µM
Binder: Dansyl-MLAELYGSDPREELLY [human VE-cadherin peptide (654–669; MLAELYGSDPREELLY)]

Binder: B1
binding result [2]: binds

Binder: B2
binding result [3]: binds
